Laboratory results reported in patent publication US9708383 (Novo Nordisk, dated 2017).
*1 amine or outer side, *2 acyl side, *3 side chain or, on linkers, in order; H or OH if unused. Where no end group is shown, it is not given here. Side-chain parts run from the residue outwards. [ ]: non-standard residue; d: D form. The star is where a group is joined. Decanoyl(10-(4-HOOC-PhO)) = O=C(O)c1ccc(OCCCCCCCCCC(=O)*)cc1; γGlu = O=C(O)[C@H](CCC(=O)[*:2])N[*:1]; C12 diacid = O=C(O)CCCCCCCCCCC(=O)*; 13‑carboxytridecanoyl = C14 diacid; AEEA = NCCOCCOCC(=O)O; Aib = CC(C)(N)C(=O)O

Experiments:
human GLP-1 receptor [1] = molecular target: T1, human GLP-1 receptor (human, UniProt P43220 24-463); assay: SPA, displacement of 125I-GLP-1(7-36)NH2, 0.005% HSA
T1 construct: whole, on cells; Used as purified membranes of the transfected hamster cells, not whole cells; also called hGLP-1
Protocol: (§1) A shift in the binding affinity, $IC50$, is an indication that the derivative in question binds to albumin, and thereby a prediction of a potential protracted pharmacokinetic profile of the derivative in question in animal models.
(§2) 25 ul (microliter) of test compounds are added to Optiplate. HSA ("high albumin" experiment containing 2% HSA), or buffer ("low albumin" experiment containing 0.005% HSA), was added (50 ul). 5-10 µg protein/sample was added (50 ul) corresponding to 0.1-0.2 mg protein/ml (to be preferably optimised for each membrane preparation). SPA-particles (Wheatgerm agglutinin SPA beads, Perkin Elmer, #RPNQ0001) were added in an amount of 0.5 mg/well (50 ul). […] The plates were sealed with PlateSealer and incubated for 120 minutes at 30° C. while shaking. The plates were centrifuged (1500 rpm, 10 min) and counted in Topcounter.

human GLP-1 receptor [2] = molecular target: T1, human GLP-1 receptor; assay: SPA, 2.0% vs 0.005% HSA
Protocol: as §1, §2

B1: GLP-1 derivative of Example 9: [Aib8,Lys18,Glu22,Arg26,Lys27,His31,Arg34]-GLP-1-(7-35)-peptide (peptide)
peptide: H[Aib]EGTFTSDVSK([AEEA-AEEA-γGlu-13‑carboxytridecanoyl])YLEEQAARK([AEEA-AEEA-γGlu-13‑carboxytridecanoyl])FIAHLVRG
modifications: ends and bridges not checked
Q: Which IC50 (human GLP-1 receptor [1]) does the source give for B1 here?
A: The IC50 was less than 1000 nM.

Q: And the “ratio IC50 high HSA/IC50 low HSA” value (human GLP-1 receptor [2])?
A: The value was greater than 1.

B2: GLP-1 derivative of Example 78: [Lys18,Glu22,Arg26,Lys31,Arg34]-GLP-1-(7-37)-peptide (peptide)
peptide: HAEGTFTSDVSK([AEEA-AEEA-γGlu-13‑carboxytridecanoyl])YLEEQAAREFIAK([AEEA-AEEA-γGlu-13‑carboxytridecanoyl])LVRGRG
Q: B2 was tested. Which IC50 (human GLP-1 receptor [1]) did it give?
A: Its IC50 is less than 1000 nM.

Q: And the “ratio IC50 high HSA/IC50 low HSA” value (human GLP-1 receptor [2])?
A: Its value is greater than 1.

B3: GLP-1 derivative of Example 40: [Lys18,Glu22,Gln34]-GLP-1-(7-37)-peptide (peptide)
peptide: HAEGTFTSDVSK([AEEA-AEEA-γGlu-C12 diacid])YLEEQAAK([AEEA-AEEA-γGlu-C12 diacid])EFIAWLVQGRG
Q: With B3 as the binder, how does the IC50 (human GLP-1 receptor [1]) read?
A: The IC50 was less than 1000 nM.

Q: What about the “ratio IC50 high HSA/IC50 low HSA” value (human GLP-1 receptor [2]) of the same binder?
A: The value was greater than 1.

B4: GLP-1 derivative of Example 47: [Lys18,Glu22,Val25,Arg26,Lys27,His31,Arg34]-GLP-1-(7-37)-peptide (peptide)
peptide: HAEGTFTSDVSK([AEEA-AEEA-γGlu-13‑carboxytridecanoyl])YLEEQAVRKFIAHLVRGRG
notes: Printed name omits the second acylation; printed masses fit a double-acylated compound
Q: With B4 as the binder, how does the IC50 (human GLP-1 receptor [1]) read?
A: Its IC50 is less than 1000 nM.

Q: And the “ratio IC50 high HSA/IC50 low HSA” value (human GLP-1 receptor [2])?
A: The value was greater than 1.

B5: GLP-1 derivative of Example 48: [Lys18,Glu22,Val25,Arg26,Lys27,Gln34]-GLP-1-(7-37)-peptide (peptide)
peptide: HAEGTFTSDVSK([AEEA-AEEA-γGlu-13‑carboxytridecanoyl])YLEEQAVRK([AEEA-AEEA-γGlu-13‑carboxytridecanoyl])FIAWLVQGRG
Q: What does the source list for B5?
A: IC50 (human GLP-1 receptor [1]): < 1000 nM; ratio IC50 high HSA/IC50 low HSA (human GLP-1 receptor [2]): > 1

B6: GLP-1 derivative of Example 38: [Lys18,Glu22,Gln34]-GLP-1-(7-37)-peptide (peptide)
peptide: HAEGTFTSDVSK([AEEA-AEEA-γGlu-Decanoyl(10-(4-HOOC-PhO))])YLEEQAAK([AEEA-AEEA-γGlu-Decanoyl(10-(4-HOOC-PhO))])EFIAWLVQGRG
Q: How did the IC50 (human GLP-1 receptor [1]) turn out when B6 was run?
A: Its IC50 is less than 1000 nM.

Q: And the “ratio IC50 high HSA/IC50 low HSA” value (human GLP-1 receptor [2])?
A: Its value is greater than 1.

B7: GLP-1 derivative of Example 34: [Lys18,Gln34]-GLP-1-(7-37)-peptide (peptide)
peptide: HAEGTFTSDVSK([AEEA-AEEA-γGlu-Decanoyl(10-(4-HOOC-PhO))])YLEGQAAK([AEEA-AEEA-γGlu-Decanoyl(10-(4-HOOC-PhO))])EFIAWLVQGRG
Q: For B7, which IC50 (human GLP-1 receptor [1]) is on record?
A: Its IC50 is less than 1000 nM.

Q: And the “ratio IC50 high HSA/IC50 low HSA” value (human GLP-1 receptor [2])?
A: The value was greater than 1.

B8: GLP-1 derivative of Example 42: [Lys18,Glu22,Val25,Arg26,Lys27,Gln34]-GLP-1-(7-37)-peptide (peptide)
peptide: HAEGTFTSDVSK([AEEA-AEEA-γGlu-Decanoyl(10-(4-HOOC-PhO))])YLEEQAVRK([AEEA-AEEA-γGlu-Decanoyl(10-(4-HOOC-PhO))])FIAWLVQGRG
Q: B8 was tested. Which IC50 (human GLP-1 receptor [1]) did it give?
A: The IC50 was less than 1000 nM.

Q: What about the “ratio IC50 high HSA/IC50 low HSA” value (human GLP-1 receptor [2]) of the same binder?
A: Its value is greater than 1.

B9: GLP-1 derivative of Example 46: [Lys18,Glu22,Val25,Arg26,Lys27,Arg34]-GLP-1-(7-37)-peptide (peptide)
peptide: HAEGTFTSDVSK([AEEA-AEEA-γGlu-13‑carboxytridecanoyl])YLEEQAVRK([AEEA-AEEA-γGlu-13‑carboxytridecanoyl])FIAWLVRGRG
Q: What does the source list for B9?
A: IC50 (human GLP-1 receptor [1]): < 1000 nM; ratio IC50 high HSA/IC50 low HSA (human GLP-1 receptor [2]): > 1

B10: GLP-1 derivative of Example 43: [Lys18,Glu22,Val25,Arg26,Lys31,Arg34]-GLP-1-(7-37)-peptide (peptide)
peptide: HAEGTFTSDVSK([AEEA-AEEA-γGlu-13‑carboxytridecanoyl])YLEEQAVREFIAK([AEEA-AEEA-γGlu-13‑carboxytridecanoyl])LVRGRG
Q: What does the source list for B10?
A: IC50 (human GLP-1 receptor [1]): < 1000 nM; ratio IC50 high HSA/IC50 low HSA (human GLP-1 receptor [2]): > 1

B11: GLP-1 derivative of Example 44: [Lys18,Glu22,Val25,Arg26,Lys31,Gln34]-GLP-1-(7-37)-peptide (peptide)
peptide: HAEGTFTSDVSK([AEEA-AEEA-γGlu-13‑carboxytridecanoyl])YLEEQAVREFIAK([AEEA-AEEA-γGlu-13‑carboxytridecanoyl])LVQGRG
Q: Which results are given for B11?
A: IC50 (human GLP-1 receptor [1]): < 1000 nM; ratio IC50 high HSA/IC50 low HSA (human GLP-1 receptor [2]): > 1

B12: GLP-1 derivative of Example 35: [Lys18,Glu22,His26,Lys27,Gln34]-GLP-1-(7-37)-peptide (peptide)
peptide: HAEGTFTSDVSK([AEEA-AEEA-γGlu-Decanoyl(10-(4-HOOC-PhO))])YLEEQAAHK([AEEA-AEEA-γGlu-Decanoyl(10-(4-HOOC-PhO))])FIAWLVQGRG
Q: Which IC50 (human GLP-1 receptor [1]) does the source give for B12 here?
A: Its IC50 is less than 1000 nM.

Q: And the “ratio IC50 high HSA/IC50 low HSA” value (human GLP-1 receptor [2])?
A: The value was greater than 1.
